# Experimental data reported in patent US12679878B2, “CRF2 receptor agonists and their use in therapy” (SANOFI, priority 2020, dated 2026).
# Starred links: 1 amine or outer side, 2 acyl side, 3 side chain; linkers in the order of their positions; H or OH if unused. Non-standard residues stand in square brackets, D forms with d. Groups on a side chain read outwards from the residue. No end group written: not given here. *: point of attachment. C18 diacid = O=C(O)CCCCCCCCCCCCCCCCC(=O)*; γGlu = O=C(O)[C@H](CCC(=O)[*:2])N[*:1]; AEEA = NCCOCCOCC(=O)O; Aib = CC(C)(N)C(=O)O
# T1: CRF1R receptor (anti-target) (UniProt P34998 24-415, limits assumed)
# T1 sequence (looked up): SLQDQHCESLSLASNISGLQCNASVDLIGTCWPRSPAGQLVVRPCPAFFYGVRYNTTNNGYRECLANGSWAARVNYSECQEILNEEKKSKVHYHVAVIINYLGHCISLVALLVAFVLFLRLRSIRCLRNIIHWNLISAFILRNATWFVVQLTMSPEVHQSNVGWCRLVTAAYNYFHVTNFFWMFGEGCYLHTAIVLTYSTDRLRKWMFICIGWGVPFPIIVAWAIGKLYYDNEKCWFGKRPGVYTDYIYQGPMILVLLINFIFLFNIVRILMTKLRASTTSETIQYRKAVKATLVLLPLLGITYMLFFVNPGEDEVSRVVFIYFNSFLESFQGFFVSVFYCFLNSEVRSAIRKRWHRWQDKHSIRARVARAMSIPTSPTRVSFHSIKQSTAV
# B1: peptide of SEQ ID NO: 118 (peptide)
# peptide: IVLSLD[dV]PIKLK([AEEA-AEEA-γGlu-C18 diacid])QILLKQERQK[Aib]QRQKAEKNKQILAQV-NH2
# modifications: N-terminus assumed
# SMILES: CC[C@H](C)[C@H](N)C(=O)N[C@H](C(=O)N[C@@H](CC(C)C)C(=O)N[C@@H](CO)C(=O)N[C@@H](CC(C)C)C(=O)N[C@@H](CC(=O)O)C(=O)N[C@@H](C(=O)N1CCC[C@H]1C(=O)N[C@H](C(=O)N[C@@H](CCCCN)C(=O)N[C@@H](CC(C)C)C(=O)N[C@@H](CCCCNC(=O)COCCOCCNC(=O)COCCOCCNC(=O)CC[C@H](NC(=O)CCCCCCCCCCCCCCCCC(=O)O)C(=O)O)C(=O)N[C@@H](CCC(N)=O)C(=O)N[C@H](C(=O)N[C@@H](CC(C)C)C(=O)N[C@@H](CC(C)C)C(=O)N[C@@H](CCCCN)C(=O)N[C@@H](CCC(N)=O)C(=O)N[C@@H](CCC(=O)O)C(=O)N[C@@H](CCCNC(=N)N)C(=O)N[C@@H](CCC(N)=O)C(=O)N[C@@H](CCCCN)C(=O)NC(C)(C)C(=O)N[C@@H](CCC(N)=O)C(=O)N[C@@H](CCCNC(=N)N)C(=O)N[C@@H](CCC(N)=O)C(=O)N[C@@H](CCCCN)C(=O)N[C@@H](C)C(=O)N[C@@H](CCC(=O)O)C(=O)N[C@@H](CCCCN)C(=O)N[C@@H](CC(N)=O)C(=O)N[C@@H](CCCCN)C(=O)N[C@@H](CCC(N)=O)C(=O)N[C@H](C(=O)N[C@@H](CC(C)C)C(=O)N[C@@H](C)C(=O)N[C@@H](CCC(N)=O)C(=O)N[C@H](C(N)=O)C(C)C)[C@@H](C)CC)[C@@H](C)CC)[C@@H](C)CC)C(C)C)C(C)C
# B2: peptide of SEQ ID NO: 119 (peptide)
# peptide: IVLSLDVPIKLK([AEEA-AEEA-γGlu-C18 diacid])QILLKQERQKK[Aib]RQKAEKNKQILAQV-NH2
# modifications: N-terminus assumed
# SMILES: CC[C@H](C)[C@H](N)C(=O)N[C@H](C(=O)N[C@@H](CC(C)C)C(=O)N[C@@H](CO)C(=O)N[C@@H](CC(C)C)C(=O)N[C@@H](CC(=O)O)C(=O)N[C@H](C(=O)N1CCC[C@H]1C(=O)N[C@H](C(=O)N[C@@H](CCCCN)C(=O)N[C@@H](CC(C)C)C(=O)N[C@@H](CCCCNC(=O)COCCOCCNC(=O)COCCOCCNC(=O)CC[C@H](NC(=O)CCCCCCCCCCCCCCCCC(=O)O)C(=O)O)C(=O)N[C@@H](CCC(N)=O)C(=O)N[C@H](C(=O)N[C@@H](CC(C)C)C(=O)N[C@@H](CC(C)C)C(=O)N[C@@H](CCCCN)C(=O)N[C@@H](CCC(N)=O)C(=O)N[C@@H](CCC(=O)O)C(=O)N[C@@H](CCCNC(=N)N)C(=O)N[C@@H](CCC(N)=O)C(=O)N[C@@H](CCCCN)C(=O)N[C@@H](CCCCN)C(=O)NC(C)(C)C(=O)N[C@@H](CCCNC(=N)N)C(=O)N[C@@H](CCC(N)=O)C(=O)N[C@@H](CCCCN)C(=O)N[C@@H](C)C(=O)N[C@@H](CCC(=O)O)C(=O)N[C@@H](CCCCN)C(=O)N[C@@H](CC(N)=O)C(=O)N[C@@H](CCCCN)C(=O)N[C@@H](CCC(N)=O)C(=O)N[C@H](C(=O)N[C@@H](CC(C)C)C(=O)N[C@@H](C)C(=O)N[C@@H](CCC(N)=O)C(=O)N[C@H](C(N)=O)C(C)C)[C@@H](C)CC)[C@@H](C)CC)[C@@H](C)CC)C(C)C)C(C)C
# B3: peptide of SEQ ID NO: 110 (peptide)
# peptide: IVLSLDVPIKLK([AEEA-AEEA-γGlu-C18 diacid])QILLKQERQK[Aib]QRQQAETNKQILAQV-NH2
# modifications: N-terminus assumed
# SMILES: CC[C@H](C)[C@H](N)C(=O)N[C@H](C(=O)N[C@@H](CC(C)C)C(=O)N[C@@H](CO)C(=O)N[C@@H](CC(C)C)C(=O)N[C@@H](CC(=O)O)C(=O)N[C@H](C(=O)N1CCC[C@H]1C(=O)N[C@H](C(=O)N[C@@H](CCCCN)C(=O)N[C@@H](CC(C)C)C(=O)N[C@@H](CCCCNC(=O)COCCOCCNC(=O)COCCOCCNC(=O)CC[C@H](NC(=O)CCCCCCCCCCCCCCCCC(=O)O)C(=O)O)C(=O)N[C@@H](CCC(N)=O)C(=O)N[C@H](C(=O)N[C@@H](CC(C)C)C(=O)N[C@@H](CC(C)C)C(=O)N[C@@H](CCCCN)C(=O)N[C@@H](CCC(N)=O)C(=O)N[C@@H](CCC(=O)O)C(=O)N[C@@H](CCCNC(=N)N)C(=O)N[C@@H](CCC(N)=O)C(=O)N[C@@H](CCCCN)C(=O)NC(C)(C)C(=O)N[C@@H](CCC(N)=O)C(=O)N[C@@H](CCCNC(=N)N)C(=O)N[C@@H](CCC(N)=O)C(=O)N[C@@H](CCC(N)=O)C(=O)N[C@@H](C)C(=O)N[C@@H](CCC(=O)O)C(=O)N[C@H](C(=O)N[C@@H](CC(N)=O)C(=O)N[C@@H](CCCCN)C(=O)N[C@@H](CCC(N)=O)C(=O)N[C@H](C(=O)N[C@@H](CC(C)C)C(=O)N[C@@H](C)C(=O)N[C@@H](CCC(N)=O)C(=O)N[C@H](C(N)=O)C(C)C)[C@@H](C)CC)[C@@H](C)O)[C@@H](C)CC)[C@@H](C)CC)C(C)C)C(C)C
# B4: peptide of SEQ ID NO: 117 (peptide)
# peptide: IVLSLDVPIKLK([AEEA-AEEA-γGlu-C18 diacid])QILLKQERQK[Aib]QRQQAEKNKQILAQV-NH2
# modifications: N-terminus assumed
# SMILES: CC[C@H](C)[C@H](N)C(=O)N[C@H](C(=O)N[C@@H](CC(C)C)C(=O)N[C@@H](CO)C(=O)N[C@@H](CC(C)C)C(=O)N[C@@H](CC(=O)O)C(=O)N[C@H](C(=O)N1CCC[C@H]1C(=O)N[C@H](C(=O)N[C@@H](CCCCN)C(=O)N[C@@H](CC(C)C)C(=O)N[C@@H](CCCCNC(=O)COCCOCCNC(=O)COCCOCCNC(=O)CC[C@H](NC(=O)CCCCCCCCCCCCCCCCC(=O)O)C(=O)O)C(=O)N[C@@H](CCC(N)=O)C(=O)N[C@H](C(=O)N[C@@H](CC(C)C)C(=O)N[C@@H](CC(C)C)C(=O)N[C@@H](CCCCN)C(=O)N[C@@H](CCC(N)=O)C(=O)N[C@@H](CCC(=O)O)C(=O)N[C@@H](CCCNC(=N)N)C(=O)N[C@@H](CCC(N)=O)C(=O)N[C@@H](CCCCN)C(=O)NC(C)(C)C(=O)N[C@@H](CCC(N)=O)C(=O)N[C@@H](CCCNC(=N)N)C(=O)N[C@@H](CCC(N)=O)C(=O)N[C@@H](CCC(N)=O)C(=O)N[C@@H](C)C(=O)N[C@@H](CCC(=O)O)C(=O)N[C@@H](CCCCN)C(=O)N[C@@H](CC(N)=O)C(=O)N[C@@H](CCCCN)C(=O)N[C@@H](CCC(N)=O)C(=O)N[C@H](C(=O)N[C@@H](CC(C)C)C(=O)N[C@@H](C)C(=O)N[C@@H](CCC(N)=O)C(=O)N[C@H](C(N)=O)C(C)C)[C@@H](C)CC)[C@@H](C)CC)[C@@H](C)CC)C(C)C)C(C)C
# B5: peptide of SEQ ID NO: 116 (peptide)
# peptide: IVLSLDVPIKLK([AEEA-AEEA-γGlu-C18 diacid])QILLKQERQK[Aib]QREKAEKNKQILAQV-NH2
# modifications: N-terminus assumed
# SMILES: CC[C@H](C)[C@H](N)C(=O)N[C@H](C(=O)N[C@@H](CC(C)C)C(=O)N[C@@H](CO)C(=O)N[C@@H](CC(C)C)C(=O)N[C@@H](CC(=O)O)C(=O)N[C@H](C(=O)N1CCC[C@H]1C(=O)N[C@H](C(=O)N[C@@H](CCCCN)C(=O)N[C@@H](CC(C)C)C(=O)N[C@@H](CCCCNC(=O)COCCOCCNC(=O)COCCOCCNC(=O)CC[C@H](NC(=O)CCCCCCCCCCCCCCCCC(=O)O)C(=O)O)C(=O)N[C@@H](CCC(N)=O)C(=O)N[C@H](C(=O)N[C@@H](CC(C)C)C(=O)N[C@@H](CC(C)C)C(=O)N[C@@H](CCCCN)C(=O)N[C@@H](CCC(N)=O)C(=O)N[C@@H](CCC(=O)O)C(=O)N[C@@H](CCCNC(=N)N)C(=O)N[C@@H](CCC(N)=O)C(=O)N[C@@H](CCCCN)C(=O)NC(C)(C)C(=O)N[C@@H](CCC(N)=O)C(=O)N[C@@H](CCCNC(=N)N)C(=O)N[C@@H](CCC(=O)O)C(=O)N[C@@H](CCCCN)C(=O)N[C@@H](C)C(=O)N[C@@H](CCC(=O)O)C(=O)N[C@@H](CCCCN)C(=O)N[C@@H](CC(N)=O)C(=O)N[C@@H](CCCCN)C(=O)N[C@@H](CCC(N)=O)C(=O)N[C@H](C(=O)N[C@@H](CC(C)C)C(=O)N[C@@H](C)C(=O)N[C@@H](CCC(N)=O)C(=O)N[C@H](C(N)=O)C(C)C)[C@@H](C)CC)[C@@H](C)CC)[C@@H](C)CC)C(C)C)C(C)C
# B6: peptide of SEQ ID NO: 109 (peptide)
# peptide: IVLSLDVPIKLK([AEEA-AEEA-γGlu-C18 diacid])QILLKQERQK[Aib]QREKAETNKQILAQV-NH2
# modifications: N-terminus assumed
# SMILES: CC[C@H](C)[C@H](N)C(=O)N[C@H](C(=O)N[C@@H](CC(C)C)C(=O)N[C@@H](CO)C(=O)N[C@@H](CC(C)C)C(=O)N[C@@H](CC(=O)O)C(=O)N[C@H](C(=O)N1CCC[C@H]1C(=O)N[C@H](C(=O)N[C@@H](CCCCN)C(=O)N[C@@H](CC(C)C)C(=O)N[C@@H](CCCCNC(=O)COCCOCCNC(=O)COCCOCCNC(=O)CC[C@H](NC(=O)CCCCCCCCCCCCCCCCC(=O)O)C(=O)O)C(=O)N[C@@H](CCC(N)=O)C(=O)N[C@H](C(=O)N[C@@H](CC(C)C)C(=O)N[C@@H](CC(C)C)C(=O)N[C@@H](CCCCN)C(=O)N[C@@H](CCC(N)=O)C(=O)N[C@@H](CCC(=O)O)C(=O)N[C@@H](CCCNC(=N)N)C(=O)N[C@@H](CCC(N)=O)C(=O)N[C@@H](CCCCN)C(=O)NC(C)(C)C(=O)N[C@@H](CCC(N)=O)C(=O)N[C@@H](CCCNC(=N)N)C(=O)N[C@@H](CCC(=O)O)C(=O)N[C@@H](CCCCN)C(=O)N[C@@H](C)C(=O)N[C@@H](CCC(=O)O)C(=O)N[C@H](C(=O)N[C@@H](CC(N)=O)C(=O)N[C@@H](CCCCN)C(=O)N[C@@H](CCC(N)=O)C(=O)N[C@H](C(=O)N[C@@H](CC(C)C)C(=O)N[C@@H](C)C(=O)N[C@@H](CCC(N)=O)C(=O)N[C@H](C(N)=O)C(C)C)[C@@H](C)CC)[C@@H](C)O)[C@@H](C)CC)[C@@H](C)CC)C(C)C)C(C)C
# Molecular target: T1, CRF1R receptor (anti-target)
# Assay: cell-based or functional assay
Binder,"EC50 [nM] 0% HSA (cAMP, HTRF)",Emax (%) (100% = Sauvagine at 100 nM)
B1,> 100 nM,1.5%
B2,> 100 nM,0.4%
B3,> 100 nM,5.4%
B4,> 100 nM,-6%
B5,> 100 nM,0.8%
B6,> 100 nM,1.1%
